{"source": "patent US20140011209", "about": "“Aptamers for Prion Diagnostics and Aptamer Binding Detection System” (Aptrix Biosystems LLC, published 2014)", "binders": {"B1": {"name": "SEQ ID NO. 6 (ssRNA)", "RNA": "UGGCGGAUACUCUGCGAAGGGCGAACCCAACAUUUCGCACAGGACCGACUACUGCA"}, "B2": {"name": "SEQ ID NO. 2 (ssRNA)", "RNA": "AAGGCGAGGUGCGACCCGCACGUGGCAUCUGAUAGCACAUGAAAAGGCACGUCA"}, "B3": {"name": "B-end (PrPSc binding region) (ssRNA)", "RNA": "GGGAGACAAGACUAGACGCUCAACUACGAACUCAUGACACAAGGAUGCAAUCUCAUCCCG"}, "B4": {"name": "SEQ ID NO. 1 (ssRNA)", "RNA": "UAGCGACAAGGCGACAAGCAAUGACACAUUAACAGACCCUGGUUAGUGAACGAA"}, "B5": {"name": "Fus74_10_5 (ssRNA)", "RNA": "GACCGGGGAGACAAGACUAGACGCUCAACUACGAACUCAUGACACAAGGAUGCAAUCUCAUCCCGACCUUUGCCUAAACAGCUGAUGGUUUACAAAGGAAGCACG"}, "B6": {"name": "74 alone (ssRNA)", "RNA": "UCCUCAAAGCGACCGACCUUUGCCUAAACAGCUGAUGGUUUACAAAGGAAGCACG"}, "B7": {"name": "SEQ ID NO. 3 (ssRNA)", "RNA": "UCUUCCAACGACCAUGCGGCGACAAGCGACUACAAGAGGGUACCCACGGACAGCA"}, "B8": {"name": "Scrambled SEQ ID NO. 107 (ssRNA)", "RNA": "GGAGGCCAACUAAUAACGCCAGAACUAUAGGAAUCCCAUGAAGCGAGCGAGAAUU"}, "B9": {"name": "SEQ ID NO. 4 (ssRNA)", "RNA": "UGGCGACGAGGCGGCAGGCAAUGACACAUUAGCAGACCCUGGUUAAUGAGCGAA"}}, "key": {"[1]": {"biological_target": "RVV-X (Russell's viper venom factor X activator) (UniProt Q7LZ61;Q4PRD1;Q4PRD2 Q7LZ61:189-619,Q4PRD1:24-146,Q4PRD2:25-158)", "experiment": "EMSA", "conditions": "tags: Haematologic Technologies; label: 32P end"}, "alpha-Thrombin": {"biological_target": "alpha-Thrombin (Homo sapiens, UniProt P00734;P00734 P00734:328-363,P00734:364-622)", "experiment": "EMSA", "conditions": "tags: Haematologic Technologies; label: 32P end; two loops and two short stems"}, "[2]": {"biological_target": "T1, RVV-X (Russell's viper venom factor X activator) (UniProt Q7LZ61;Q4PRD1;Q4PRD2 Q7LZ61:189-619,Q4PRD1:24-146,Q4PRD2:25-158)", "experiment": "EMSA; prion binding component alone", "conditions": "tags: Haematologic Technologies; label: 32P end; two loops and two short stems"}, "[3]": {"biological_target": "T1, RVV-X (Russell's viper venom factor X …)", "experiment": "EMSA; room temperature, 1 h", "conditions": "tags: Haematologic Technologies, label: 32P end"}, "[4]": {"biological_target": "T1, RVV-X (Russell's viper venom factor X …)", "experiment": "EMSA", "conditions": "tags: Haematologic Technologies; label: 32P end; three loops, two bulges, three stems"}, "[5]": {"biological_target": "T1, RVV-X (Russell's viper venom factor X …)", "experiment": "EMSA; scrambled SEQ 1, negative control", "conditions": "tags: Haematologic Technologies; label: 32P end"}}}
{"binder": "B1", "values": [{"measurement": "Kd", "setting": "[1]", "result": 19, "unit": "nM"}]}
{"binder": "B2", "values": [{"measurement": "Kd", "setting": "[1]", "result": 23, "unit": "nM"}]}
{"binder": "B3", "values": [{"measurement": "Kd", "setting": "alpha-Thrombin", "result": 4220, "unit": "nM"}, {"measurement": "Kd", "setting": "[2]", "result": 170, "unit": "nM"}]}
{"binder": "GACCGACCUUUGCCUAAACAGCUGAUGGUUUACAAAGGAAGCACG (ssRNA)", "note": "[74, 10 from 5']", "values": [{"measurement": "Kd", "setting": "[3]; stem-loop with bulge", "result": 250, "unit": "nM"}]}
{"binder": "UCCUCAAAGCGACCGACCUUUGCCUAAACAGCUGAUGGUUUACAA (ssRNA)", "note": "[74, 10 from 3']", "values": [{"measurement": "Kd", "setting": "[3]", "result": 301, "unit": "nM"}]}
{"binder": "UCCUCAAAGCGACCGACCUUUGCCUAAACAGCUGAUGGUUUACAAAGGAA (ssRNA)", "note": "[74, 5 from 3']", "values": [{"measurement": "Kd", "setting": "[3]", "result": 352, "unit": "nM"}]}
{"binder": "AAAGCGACCGACCUUUGCCUAAACAGCUGAUGGUUUACAAAGGAAGCACG (ssRNA)", "note": "[74, 5 from 5']", "values": [{"measurement": "Kd", "setting": "[3]", "result": 374, "unit": "nM"}]}
{"binder": "AAAGCGACCGACCUUUGCCUAAACAGCUGAUGGUUUACAAAGGAA (ssRNA)", "note": "[74, 5 from both]", "values": [{"measurement": "Kd", "setting": "[3]", "result": 426, "unit": "nM"}]}
{"binder": "B4", "values": [{"measurement": "Kd", "setting": "[1]", "result": 30, "unit": "nM"}]}
{"binder": "B5", "values": [{"measurement": "Kd", "setting": "[4]", "result": 63.9, "unit": "nM"}]}
{"binder": "B6", "values": [{"measurement": "Kd", "setting": "[1]", "result": 75, "unit": "nM"}]}
{"binder": "B7", "values": [{"measurement": "Kd", "setting": "[1]", "result": 94.7, "unit": "nM"}]}
{"binder": "B8", "values": [{"measurement": "Kd", "setting": "[5]", "result": 131, "unit": "nM"}]}
{"binder": "B9", "values": [{"measurement": "Kd", "setting": "[1]", "result": 158, "unit": "nM"}]}
